This is an account of results in the supplement of paper PMC12042874.

± gives the uncertainty stated by the source.

The nature of this series: amyloid nucleation score (Sup35N fusion, yeast selection) (log enrichment); library NNK1; higher = more nucleation; inactive = no reads after selection. The method in brief: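 Yeast lacking psi expressed peptides of 20 random codons fused to Sup35N, received 100 μM copper sulfate for 24 hours, and were then grown for 7 days at 30°C on medium lacking adenine and uracil. Illumina sequencing of input and output plasmid inserts provided the reads. Nucleation scores are DiMSum log enrichments of output over input, centred on the mode of non-aggregating sequences. Any sequence with under 100 input reads was excluded.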
FLRFIRSVNFYVKEYAESLL: the amyloid nucleation score is -0.691 ± 0.52.
The same measure for YLWSSCLGGDSANWLLY: 0.714 ± 0.32.
In turn, LIWSHVLDGYSCEKPSNRMC showed an amyloid nucleation score of -0.662 ± 0.98.
The same measure for SWSSGGNFARFIQYVPATHA: 0.117 ± 0.72; for LMNCVAYAIVEVTCVSCMES: 4.68 ± 0.082; for YNNLIPTYHHWGSFHMV: 1.32 ± 0.68.
The substance WHAHFEFNMLGILCRHFCSL registered an amyloid nucleation score of 3.19 ± 0.16.
As for VGLLMKTACSWAGSVTDRCM, the amyloid nucleation score was determined as 2.62 ± 0.14.
On to GKFDSGYVKGTVHNEAEFQP, for which the amyloid nucleation score is -0.223 ± 0.31.
RYMWYLVCS registered an amyloid nucleation score of 0.026 ± 0.7.
YRRWKPIGVMSSSWLICVES showed an amyloid nucleation score of 0.603 ± 0.43.
In turn, NVIVKDLVLDNTFCVARVQA came in with an amyloid nucleation score of -0.639 ± 0.42.
Consider FFRRNHGYNI, for which the amyloid nucleation score came to 0.092 ± 0.43.
For AVFLY the value was -0.153 ± 0.33.
On to LCSHAIFCSSCGRFVLMEAC, for which the amyloid nucleation score result was “inactive”.
As for SPLFLVWLTCYKQDPFILVW, the amyloid nucleation score entry was “inactive”.
Substance LHSQKGILSLSSPI displayed an amyloid nucleation score of -0.223 ± 0.32.
As for VGLLSISLMYQRTASTGYFS, the amyloid nucleation score stood at 0.615 ± 0.28.
On to GLLNTYS, for which the amyloid nucleation score came out at 0.626 ± 1.2.
LGCSFR displayed an amyloid nucleation score of -0.065 ± 1.4.
Substance CNPEGYRAHVLCFLNFA returned an amyloid nucleation score of 3.63 ± 0.092.
Regarding HNWCYQNKGHVRGNKLCFRY, the amyloid nucleation score is -0.112 ± 0.63.
ANDFYVMYAEWKDCRNRVLF: the amyloid nucleation score is 0.655 ± 0.66.
SSGAYSLSKWYQYRMFSVVL had an amyloid nucleation score of -0.771 ± 0.66.
For YSISFSYHGVVCGSGSNRGV the value was -0.589 ± 0.63; for TSRALRREIARLKAYGSMMV, “inactive”.
On to WSSTTNWMLRPFKCANRLGW, for which the amyloid nucleation score is -0.529 ± 1.3.
As for FVLLRIRHRFFWGSCLNPFQ, the amyloid nucleation score was found to be 1.12 ± 0.26.
RHFLFLLWARPTTCSIFMVG showed an amyloid nucleation score of -0.454 ± 0.77.
For WYRYEPLVMTRQMSGVGPMR the value was 0.124 ± 0.33.
As to IDVFEITSKSFAARGAQFVH, the amyloid nucleation score was -1.97 ± 1.3.
On to NQCYYRAGLFRVDLFCLELA, for which the amyloid nucleation score result is “inactive”.
The same measure for NRYMWDFSIAGVGVRLWINS: -0.896 ± 0.55; for SQIYTFVDLFLSS: 1.26 ± 0.68; for PSRWRYYGSYGDLILICSGS: -0.907 ± 0.79.
In the case of VREGPRSRSGG, the amyloid nucleation score worked out at 0.149 ± 0.41.
Substance LFETI came in with an amyloid nucleation score of 0.746 ± 0.71.
In the case of VFESIVNGQVMMTLN, the amyloid nucleation score was -1.92 ± 2.4.
In the case of GKSLLKSYCIRMPLFSRNTL, the amyloid nucleation score result was “inactive”.
For SNRFFVPRA, the amyloid nucleation score was -0.334 ± 0.5.
For APRCKSIWS the value was -0.706 ± 0.59.
With LSHLLMRCGCIRLFVISMRE, the amyloid nucleation score was 0.448 ± 0.49.
For KVKNRAFWPHMSLTYAMVPP the value was 0.333 ± 0.39; for TTSVV, -0.174 ± 1.2.
LVFSRYYRCLFTIDF showed an amyloid nucleation score of 3.62 ± 0.11.
Turning to VILWRSRIASRCPTLM, the amyloid nucleation score is -0.415 ± 1.4.
SRCLMRMTAPQVQEGACAVC had an amyloid nucleation score of -0.268 ± 0.38.
In turn, SYCYKDGWELVLEYLFVNCT registered an amyloid nucleation score of 1.21 ± 0.45.
FFFHSKDVYYGDFVHLSFAG returned an amyloid nucleation score of -0.352 ± 1.2.
On to NGTWYILSQASFFYELDAYC, for which the amyloid nucleation score was -0.012 ± 0.43.
FRSFNGTCSGVQWSVFVIWV returned an amyloid nucleation score of -0.18 ± 0.77.
Substance FWSVYKT gave an amyloid nucleation score of 0.744 ± 0.27.
As for WVPMDVF, the amyloid nucleation score stood at 1.61 ± 0.35.
YRSFCFRWWISSGCAGLRGS registered an amyloid nucleation score of 0.489 ± 0.67.
For PSKPLGIIRLVSNQFPPSHK the value was 0.123 ± 0.29; for SNLLPLYP, 0.263 ± 1.1; for GGGGNVGGFFMWCSVYSAGV, -0.105 ± 0.96.
Turning to LPDCINNVQNGYSKLSEGLS, the amyloid nucleation score was found to be 0.792 ± 1.
DLTVWSTIFDSMSTCEHRGG: the amyloid nucleation score was determined as 0.257 ± 0.42.
Substance LNCLFLFSISAFRVLASHIM showed an amyloid nucleation score of 0.448 ± 0.42.
FDFACCTTGIGPFSCDLGSG: the amyloid nucleation score was 7.694 ± 0.052.
In turn, ESHSSTKGSEWLRHSHSDGV had an amyloid nucleation score of 0.632 ± 0.39.
For the substance RARCFHSSLVVRLLRQTAER, the amyloid nucleation score was 0.192 ± 1.
The same measure for FCELELMVHVVMPFKAVS: 0.831 ± 0.77; for FMRSATCKVWNL: -0.079 ± 0.51.
For NTHSPSFGFAMIRSGDTEKF the value was “inactive”; for YFSVHF, 2.29 ± 0.15; for PWPVSFYFMVNIVWCGRVIL, 1.06 ± 0.26.
Turning to CNMSQC, the amyloid nucleation score entry was “inactive”.
HSGSAE yielded an amyloid nucleation score of -1.28 ± 1.3.
In turn, VFIQMGHELDFQCEE yielded an amyloid nucleation score of 0.527 ± 0.63.
VFLISY came in with an amyloid nucleation score of 0.199 ± 0.42.
In the case of TSYPSYVDFW, the amyloid nucleation score is 0.209 ± 0.58.
In turn, TLVFRYKSDGCQSLRVRLTF displayed an amyloid nucleation score of 0.084 ± 0.32.
Substance TVLVYRGFTEGCSHFSWPSN returned an amyloid nucleation score of 0.302 ± 0.8.
In turn, GLMWKAN showed an amyloid nucleation score of 0.537 ± 0.67.
Regarding VNRGVVVRITWIAKHYCMSE, the amyloid nucleation score was found to be 0.26 ± 0.38.
As to VKSRYLFRCSLLFEHDTGIC, the amyloid nucleation score is 0.01 ± 0.23.
The substance NKSHAHLKVAMSLVCPFKSH had an amyloid nucleation score of 1.5 ± 0.44.
Substance NFSFLGFLSRYGCLFQVSS returned an amyloid nucleation score of 0.582 ± 0.6.
With MGVVRLAS, the amyloid nucleation score was -0.149 ± 0.27.
The same measure for CGFEVFVRIV: 0.431 ± 0.7; for RLTCFRGLGNIYIELINMVN: -0.376 ± 0.23; for RCRPKVWACS: -0.102 ± 1.
MYREYLGRSRRQFYFGTGKH: the amyloid nucleation score came out at 3.82 ± 0.16.
For VADGYIHARSCRYFKNIIVR the value was -1 ± 1.2; for RLAWPRKSSSCN, 0.774 ± 0.45.
In turn, GVWLVSDRKVADVRSNYCFD returned an amyloid nucleation score of -2.18 ± 2.7.
TDVSVKLSVMMH yielded an amyloid nucleation score of 1.53 ± 0.16.
For NGMIFFVIGMNFGCQESSRN the value was 6.208 ± 0.051; for MRYIKSVVSSVCSYNLPLRA, 0.525 ± 0.44.
The same measure for WFAAHPYFNWDGGIRY: -1.41 ± 2.7; for YEFTYLWNNKVLLGLCCYGG: 4 ± 0.13.
The substance NTGIS showed an amyloid nucleation score of -1.22 ± 1.4.
On to WPSKAQAVFTNTSTLNVSRF, for which the amyloid nucleation score result was “inactive”.
In turn, LFLHPMYMMKAASASGITVV registered an amyloid nucleation score of -0.1 ± 0.57.
SVNRLTLKPSYAKYRVYSGH showed an amyloid nucleation score of 0.46 ± 0.68.
The same measure for SVWFWFSKGWFSLCWAFFEK: 0.428 ± 1.2; for YFLSHRCTGGLPIS: -0.028 ± 0.9; for FLLESL: “inactive”.
SLVLRRLYEVSVTCTAGNAW: the amyloid nucleation score is 0.094 ± 0.98.
In turn, IGYSGYY showed an amyloid nucleation score of -0.296 ± 0.41.
On to IHLIDLTRVSAG, for which the amyloid nucleation score is 0.627 ± 0.63.
In turn, HLSLVNFCMSVSLESWYEWM displayed an amyloid nucleation score of 0.819 ± 0.44.
Substance KTRHMREDGQCVYKHEMERM displayed an amyloid nucleation score of 0.577 ± 0.19.
The substance YVCPRSWVVRVRHQKTFQSY returned an amyloid nucleation score of -0.374 ± 0.81.
Consider LFIVTFSYFLSPRLVQWYAL, for which the amyloid nucleation score was 0.516 ± 0.67.
LEHYRVVLLG: the amyloid nucleation score is -0.535 ± 0.43.
The same measure for MRIPVRLVV: 0.027 ± 0.54; for TLRVLFFKCLGHIRLLVRGF: -1.64 ± 2.7.
With SYVYHPTSRLVWIIRMIT, the amyloid nucleation score was determined as 0.5 ± 0.38.
For MFRRFSWGR the value was -0.198 ± 0.44; for RRSESGKCFDLLSSSLSVIN, -0.786 ± 0.73.
The same measure for NRSLKCICRRSVGRRSQNLR: 0.57 ± 0.5.
As for SNTICQVGASREEPSCGTQW, the amyloid nucleation score was found to be 1.14 ± 0.97.
QIKVTGRRSSDEGSQGGWLL came in with an amyloid nucleation score of 3.82 ± 0.081.
For ELVYRMESIFCSELRVLGKF, the amyloid nucleation score amounted to 4.14 ± 0.15.
The same measure for RYTLFCLSVNYWWTFWLDSV: 1.61 ± 0.58; for TSSYGCQHINVMCCRLQGDL: 7.444 ± 0.074.
Regarding TGKDLRAEHENFVARNHFPM, the amyloid nucleation score is -0.954 ± 1.4.
Substance TSCSLYIVMRCVWCIYRGAR came in with an amyloid nucleation score of -0.866 ± 2.4.
The same measure for QLRGWQYSKATREVDSREDR: 0.646 ± 0.79.
On to LGPNW, for which the amyloid nucleation score was -0.356 ± 0.53.
In the case of AMYFTWFVHFGAYRVRSIEK, the amyloid nucleation score came out at 1.48 ± 0.48.
GLVSQPFWCSYKCGGHNHKG showed an amyloid nucleation score of 0.314 ± 1.4.
The substance VGRLGVEG came in with an amyloid nucleation score of -0.305 ± 0.25.
As to VIRRLRSTYMSDMLLEGGLA, the amyloid nucleation score worked out at 0.864 ± 0.56.
Consider MEHYLACIWITHVCF, for which the amyloid nucleation score was found to be 0.117 ± 1.1.
For NSEKLPMHPRGHAGQAWVQS the value was 0.153 ± 0.45; for LHLPYGCTASAICQFECSGW, 3 ± 0.15; for AHYRV, 0.014 ± 0.48.
As to MTFVMHIAWG, the amyloid nucleation score stood at 1.55 ± 0.26.
For PVLRTSWTCWA the value was -0.254 ± 0.6.
In the case of WINFMSQWDPLGRQYVWHIQ, the amyloid nucleation score is 1.81 ± 0.36.
LSVSFDVDVMVMIQVNCAIH showed an amyloid nucleation score of 0.105 ± 0.39.
For NRQSNSVVYNARQETFIRHL the value was 3.39 ± 0.14; for VLIGSLLCN, 0.878 ± 0.41; for SYTRPILIWSLNRFSAG, 1.26 ± 0.34.
For YAYMVLVVPRDSVLEESECR the value was -0.087 ± 0.78.
SIRLPVIKRSRL registered an amyloid nucleation score of -0.109 ± 0.66.
As to DLVSVHHVNRLRCWSGCLCE, the amyloid nucleation score was -0.532 ± 0.51.
